Laboratory results as given in the supplement of paper PMC6755084.

B1: minF1; the commonest letter at each place (parent)
chain: GAGACCGCAACTGAAAAGTTGTTATCAGAAATGGATGGGTTGAATTTCTGCACGTAGAAGCAAAAGGC

Variants of: B1
Assay: fraction ligated after 30 min (ligated reads / total reads); higher = more ligase activity
Conditions: with F1*subA RNA substrate (template-directed ligation), 42 °C
Method in brief: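 Templates from an oligo pool encoding minimized ligase ribozyme variants were amplified by PCR, transcribed with T7, and purified on gels. Gel electrophoresis separated ligated from unligated RNAs, which were then reverse transcribed using barcoded primers and sequenced on a MiSeq, keeping core bases with quality ≥30. For each variant, fraction ligated equals ligated reads divided by total reads.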

Variant | fraction ligated
T32G T36G | 0.00871
T32G T36A | 0.00414
T32G T36C | 0.00404
G34A T36C | 0.0256
G34A T36A | 0.0315
G34A T36G | 0.0395
T36G G37C | 0.0044
T36G G37A | 0.00776
T36G G37T | 0.00976
G42T A43C A44G | 0.00164
G42T A43C A44T | 0.0038
G42T A43C A44C | 0.00131
G33C A44G | 0.497
G33C A44T | 0.598
G33C A44C | 0.383
G33T A43C | 0.0254
G33T A43T | 0.0265
G33T A43G | 0.0169
T32C T36C | 0.00318
T32C T36A | 0.00145
T32C T36G | 0.00825
T32C G37A | 0.00241
T32C G37C | 0.00446
T32C G37T | 0.00216

Variant | fraction ligated
G37C G42C | 0.00331
G37C G42A | 0.00281
G37C G42T | 0.00137
G34C A44T | 0.00566
G34C A44C | 0.00339
G34C A44G | 0.00318
T32C G42A | 0.00418
T32C G42C | 0.00351
T32C G42T | 0.0036
T36A A43C | 0.0049
T36A A43T | 0.00522
T36A A43G | 0.00353
G42A | 0.364
G42C | 0.0127
G42T | 0.117
T32G G42C | 0.00582
T32G G42T | 0.00243
T32G G42A | 0.00352
T32G G37C | 0.0035
T32G G37T | 0.00459
T32G G37A | 0.00205
T32G A44T | 0.0536
T32G A44G | 0.0444
T32G A44C | 0.067

Variant | fraction ligated
T32G G34A | 0.0029
T32G G34C | 0.00552
T32G G34T | 0.00509
T32C A35G | 0.00362
T32C A35C | 0.00582
T32C A35T | 0.0031
T36G G42C | 0.00216
T36G G42A | 0.00463
T36G G42T | 0.000662
G37T G42C | 0.00492
G37T G42T | 0.00146
G37T G42A | 0.00778
T32A T36G | 0.00433
T32A T36C | 0.00204
T32A T36A | 0.00173
T32C G33T | 0.0247
T32C G33A | 0.0169
T32C G33C | 0.0121
G42A A43T | 0.00678
G42A A43C | 0.0101
G42A A43G | 0.0596
G33A G42T | 0.102
G33A G42C | 0.0145
G33A G42A | 0.228

Variant | fraction ligated
T41A | 0.689
T41C | 0.86
T41G | 0.146
T36C G37C | 0.0038
T36C G37A | 0.00566
T36C G37T | 0.00876
G34A A35C | 0.00719
G34A A35G | 0.00813
G34A A35T | 0.0147
G42A A43G A44G | 0.00352
G42A A43G A44C | 0.00251
G42A A43G A44T | 0.00363
G34T | 0.00484
G34A | 0.0464
G34C | 0.00469
G33C A43T | 0.0544
G33C A43G | 0.0324
G33C A43C | 0.0394
T32G A35C | 0.00432
T32G A35G | 0.00546
T32G A35T | 0.00401
G33T T36C | 0.0104
G33T T36G | 0.0372
G33T T36A | 0.0253

Variant | fraction ligated
T36G | 0.0461
T36C | 0.0157
T36A | 0.0309
A35C G42T | 0.00281
A35C G42C | 0.00254
A35C G42A | 0.00288
G34A G42C | 0.00302
G34A G42T | 0.00582
G34A G42A | 0.0111
G33A G34C | 0.00342
G33A G34T | 0.00656
G33A G34A | 0.334
G34A A44T | 0.0265
G34A A44G | 0.019
G34A A44C | 0.008
G33T A44T | 0.299
G33T A44C | 0.149
G33T A44G | 0.249
T32A G42T | 0.00743
T36C A44G | 0.00651
T36C A44T | 0.0101
T36C A44C | 0.00404
G34T G42C | 0.00101
G34T G42A | 0.00242

Variant | fraction ligated
G34T G42T | 0.00241
G33A T36G | 0.0572
G33A T36A | 0.0257
G33A T36C | 0.0229
G34C G37A | 0.00257
G34C G37T | 0.00343
G34C G37C | 0.00307
G33C T36A | 0.0174
G33C T36C | 0.00989
G33C T36G | 0.0305
G34A G37C | 0.00312
G34A G37A | 0.00394
G34A G37T | 0.00793
G37A A43G | 0.00388
G37A A43T | 0.00461
G37A A43C | 0.00236
T32C A44C | 0.0116
T32C A44G | 0.0172
T32C A44T | 0.0253
G33A A43G | 0.0533
G33A A43T | 0.0914
G33A A43C | 0.0816
G37T A43G | 0.00602
G37T A43C | 0.00313

Variant | fraction ligated
G37T A43T | 0.00731
G37T A44G | 0.0087
G37T A44T | 0.0093
G37T A44C | 0.00343
G33C G37C | 0.00381
G33C G37A | 0.00724
G33C G37T | 0.01
G33A G37C | 0.00669
G33A G37T | 0.0175
G33A G37A | 0.00769
A35C A43T | 0.00614
A35C A43G | 0.00754
A35C A43C | 0.00377
G33T | 0.605
G33A | 0.817
G33C | 0.804
G34T T36C | 0.00276
G34T T36A | 0.00722
G34T T36G | 0.00275
G42C A43T | 0.00312
G42C A43C | 0.00394
G42C A43G | 0.0762
T36A A44T | 0.012
